Assay results reported in patent US20140141450A1.

Key:
[1] = target: Peptide sequence V: Bz-…(mPeg2)(KLCBiot)-amide; assay: ECL bead immunoassay; uncleaved peptide sequence V on streptavidin beads, FXa 0.00 ng/mL, 10 minute incubation
[2] = target: Peptide sequence V: Bz-…(mPeg2)(KLCBiot)-amide; assay: ECL bead immunoassay; uncleaved peptide sequence V on streptavidin beads, FXa 0.00 ng/mL, 20 minute incubation
[3] = target: NH2-…-TAG (SEQ ID NO:5); assay: ECL capture assay; uncleaved NH2-…-TAG at 2.5 µg/mL, FXa 0.00 ng/mL
[4] = target: NH2-…-TAG (SEQ ID NO:5); assay: ECL capture assay; uncleaved NH2-…-TAG at 5.0 µg/mL, FXa 0.00 ng/mL
[5] = target: NH2-…-TAG (SEQ ID NO:5); assay: ECL capture assay; uncleaved NH2-…-TAG at 1.25 µg/mL, FXa 0.00 ng/mL
[6] = target: Peptide sequence VII: NH2-…-TAG Plus; assay: competitive ECL immunoassay; anti-FLAG M1 beads with peptide sequence VII-TAG Plus, uncleaved peptide sequence VI present, Xa 0.00 ng/mL
[7] = test system: T1, NH2-IEGRDYKDDDDKGS-TAG (SEQ ID NO:5)
T1 sequence: IEGRDYKDDDDKGS

[8] = test system: T2, Peptide probe sequence I: Biotin-IEGRGS (KBv TAG Plus) amide
T2 sequence: IEGRGSK

[9] = test system: T3, Peptide probe sequence II: Biotin-(mPeg2)IEGRGS (KBv TAG Plus) amide
T3 sequence: IEGRGSK

[10] = test system: T4, Peptide sequence V: Bz-IEGRDYKDDDDKGSHHHHHH(mPeg2)(KLCBiot)-amide
T4 sequence: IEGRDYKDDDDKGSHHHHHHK

[11] = test system: T5, Peptide sequence VI: NH2-IEGRDYKDDDDKGS-amide
T5 sequence: IEGRDYKDDDDKGS

## BV TAG Plus-conjugated ANTI-FLAG® M1 antibody
[1]
  Mean Signal (ECL, background without FXa): 345 ECL signal
[2]
  Mean Signal (ECL, background without FXa): 319 ECL signal

## Biotin-conjugated ANTI-FLAG® M1 antibody
[3]
  Mean Signal (ECL, background without FXa): 856 ECL signal
[4]
  Mean Signal (ECL, background without FXa): 1770 ECL signal
[5]
  Mean Signal (ECL, background without FXa): 593 ECL signal
[6]
  Mean Signal (ECL, without FXa): 91800 ECL signal

## factor Xa (FXa)
[7]
  Mean Signal (ECL, capture on anti-FLAG M1 beads), FXa 1.37 ng/mL, peptide 1.25 µg/mL: 1140 ECL signal
  Mean Signal (ECL, capture on anti-FLAG M1 beads), FXa 1.37 ng/mL, peptide 2.5 µg/mL: 1390 ECL signal
  Mean Signal (ECL, capture on anti-FLAG M1 beads), FXa 1.37 ng/mL, peptide 5.0 µg/mL: 3720 ECL signal
  Mean Signal (ECL, capture on anti-FLAG M1 beads), FXa 4.12 ng/mL, peptide 1.25 µg/mL: 2170 ECL signal
  Mean Signal (ECL, capture on anti-FLAG M1 beads), FXa 4.12 ng/mL, peptide 2.5 µg/mL: 3830 ECL signal
  Mean Signal (ECL, capture on anti-FLAG M1 beads), FXa 4.12 ng/mL, peptide 5.0 µg/mL: 6360 ECL signal
  Mean Signal (ECL, capture on anti-FLAG M1 beads), FXa 12.3 ng/mL, peptide 1.25 µg/mL: 4440 ECL signal
  Mean Signal (ECL, capture on anti-FLAG M1 beads), FXa 12.3 ng/mL, peptide 2.5 µg/mL: 7700 ECL signal
  Mean Signal (ECL, capture on anti-FLAG M1 beads), FXa 12.3 ng/mL, peptide 5.0 µg/mL: 14900 ECL signal
  Mean Signal (ECL, capture on anti-FLAG M1 beads), FXa 37.0 ng/mL, peptide 1.25 µg/mL: 10700 ECL signal
  Mean Signal (ECL, capture on anti-FLAG M1 beads), FXa 37.0 ng/mL, peptide 2.5 µg/mL: 20100 ECL signal
  Mean Signal (ECL, capture on anti-FLAG M1 beads), FXa 37.0 ng/mL, peptide 5.0 µg/mL: 32300 ECL signal
  Mean Signal (ECL, capture on anti-FLAG M1 beads), FXa 111 ng/mL, peptide 1.25 µg/mL: 20500 ECL signal
  Mean Signal (ECL, capture on anti-FLAG M1 beads), FXa 111 ng/mL, peptide 2.5 µg/mL: 41800 ECL signal
  Mean Signal (ECL, capture on anti-FLAG M1 beads), FXa 111 ng/mL, peptide 5.0 µg/mL: 62100 ECL signal
  Mean Signal (ECL, capture on anti-FLAG M1 beads), FXa 333 ng/mL, peptide 1.25 µg/mL: 52800 ECL signal
  Mean Signal (ECL, capture on anti-FLAG M1 beads), FXa 333 ng/mL, peptide 2.5 µg/mL: 62700 ECL signal
  Mean Signal (ECL, capture on anti-FLAG M1 beads), FXa 333 ng/mL, peptide 5.0 µg/mL: 78700 ECL signal
  Mean Signal (ECL, capture on anti-FLAG M1 beads), FXa 1000 ng/mL, peptide 1.25 µg/mL: 69000 ECL signal
  Mean Signal (ECL, capture on anti-FLAG M1 beads), FXa 1000 ng/mL, peptide 2.5 µg/mL: 78200 ECL signal
  Mean Signal (ECL, capture on anti-FLAG M1 beads), FXa 1000 ng/mL, peptide 5.0 µg/mL: 86900 ECL signal
  Signal/Background, FXa 1.37 ng/mL, peptide 1.25 µg/mL: 1.9
  Signal/Background, FXa 1.37 ng/mL, peptide 2.5 µg/mL: 1.6
  Signal/Background, FXa 1.37 ng/mL, peptide 5.0 µg/mL: 2.1
  Signal/Background, FXa 4.12 ng/mL, peptide 1.25 µg/mL: 3.7
  Signal/Background, FXa 4.12 ng/mL, peptide 2.5 µg/mL: 4.5
  Signal/Background, FXa 4.12 ng/mL, peptide 5.0 µg/mL: 3.6
  Signal/Background, FXa 12.3 ng/mL, peptide 1.25 µg/mL: 7.5
  Signal/Background, FXa 12.3 ng/mL, peptide 2.5 µg/mL: 9
  Signal/Background, FXa 12.3 ng/mL, peptide 5.0 µg/mL: 8.4
  Signal/Background, FXa 37.0 ng/mL, peptide 1.25 µg/mL: 18
  Signal/Background, FXa 37.0 ng/mL, peptide 2.5 µg/mL: 24
  Signal/Background, FXa 37.0 ng/mL, peptide 5.0 µg/mL: 18
  Signal/Background, FXa 111 ng/mL, peptide 1.25 µg/mL: 35
  Signal/Background, FXa 111 ng/mL, peptide 2.5 µg/mL: 49
  Signal/Background, FXa 111 ng/mL, peptide 5.0 µg/mL: 35
  Signal/Background, FXa 333 ng/mL, peptide 1.25 µg/mL: 89
  Signal/Background, FXa 333 ng/mL, peptide 2.5 µg/mL: 73
  Signal/Background, FXa 333 ng/mL, peptide 5.0 µg/mL: 45
  Signal/Background, FXa 1000 ng/mL, peptide 1.25 µg/mL: 116
  Signal/Background, FXa 1000 ng/mL, peptide 2.5 µg/mL: 91
  Signal/Background, FXa 1000 ng/mL, peptide 5.0 µg/mL: 49
[8]
  % Signal Decrease, FXa 78.1 ng/mL: -3%
  % Signal Decrease, FXa 156 ng/mL: -3%
  % Signal Decrease, FXa 313 ng/mL: -9%
  % Signal Decrease, FXa 625 ng/mL: -15%
  % Signal Decrease, FXa 1250 ng/mL: -31%
  % Signal Decrease, FXa 2500 ng/mL: -53%
  % Signal Decrease, FXa 5000 ng/mL: -76%
  Mean Signal (ECL), FXa 78.1 ng/mL: 414000 ECL signal
  Mean Signal (ECL), FXa 156 ng/mL: 413000 ECL signal
  Mean Signal (ECL), FXa 313 ng/mL: 388000 ECL signal
  Mean Signal (ECL), FXa 625 ng/mL: 363000 ECL signal
  Mean Signal (ECL), FXa 1250 ng/mL: 296000 ECL signal
  Mean Signal (ECL), FXa 2500 ng/mL: 202000 ECL signal
  Mean Signal (ECL), FXa 5000 ng/mL: 104000 ECL signal
[9]
  % Signal Decrease, FXa 78.1 ng/mL: 0%
  % Signal Decrease, FXa 156 ng/mL: -4%
  % Signal Decrease, FXa 313 ng/mL: -11%
  % Signal Decrease, FXa 625 ng/mL: -10%
  % Signal Decrease, FXa 1250 ng/mL: -24%
  % Signal Decrease, FXa 2500 ng/mL: -39%
  % Signal Decrease, FXa 5000 ng/mL: -66%
  Mean Signal (ECL), FXa 78.1 ng/mL: 340000 ECL signal
  Mean Signal (ECL), FXa 156 ng/mL: 326000 ECL signal
  Mean Signal (ECL), FXa 313 ng/mL: 303000 ECL signal
  Mean Signal (ECL), FXa 625 ng/mL: 306000 ECL signal
  Mean Signal (ECL), FXa 1250 ng/mL: 257000 ECL signal
  Mean Signal (ECL), FXa 2500 ng/mL: 209000 ECL signal
  Mean Signal (ECL), FXa 5000 ng/mL: 117000 ECL signal
[10]
  Mean Signal (ECL, TAG Plus anti-FLAG M1 detector), FXa 0.686 ng/mL, 10 minute incubation: 856 ECL signal
  Mean Signal (ECL, TAG Plus anti-FLAG M1 detector), FXa 0.686 ng/mL, 20 minute incubation: 1050 ECL signal
  Mean Signal (ECL, TAG Plus anti-FLAG M1 detector), FXa 2.06 ng/mL, 10 minute incubation: 1430 ECL signal
  Mean Signal (ECL, TAG Plus anti-FLAG M1 detector), FXa 2.06 ng/mL, 20 minute incubation: 2110 ECL signal
  Mean Signal (ECL, TAG Plus anti-FLAG M1 detector), FXa 6.17 ng/mL, 10 minute incubation: 3100 ECL signal
  Mean Signal (ECL, TAG Plus anti-FLAG M1 detector), FXa 6.17 ng/mL, 20 minute incubation: 6040 ECL signal
  Mean Signal (ECL, TAG Plus anti-FLAG M1 detector), FXa 18.5 ng/mL, 10 minute incubation: 8790 ECL signal
  Mean Signal (ECL, TAG Plus anti-FLAG M1 detector), FXa 18.5 ng/mL, 20 minute incubation: 20700 ECL signal
  Mean Signal (ECL, TAG Plus anti-FLAG M1 detector), FXa 55.6 ng/mL, 10 minute incubation: 33700 ECL signal
  Mean Signal (ECL, TAG Plus anti-FLAG M1 detector), FXa 55.6 ng/mL, 20 minute incubation: 74000 ECL signal
  Mean Signal (ECL, TAG Plus anti-FLAG M1 detector), FXa 167 ng/mL, 10 minute incubation: 113000 ECL signal
  Mean Signal (ECL, TAG Plus anti-FLAG M1 detector), FXa 167 ng/mL, 20 minute incubation: 225000 ECL signal
  Mean Signal (ECL, TAG Plus anti-FLAG M1 detector), FXa 500 ng/mL, 10 minute incubation: 298000 ECL signal
  Mean Signal (ECL, TAG Plus anti-FLAG M1 detector), FXa 500 ng/mL, 20 minute incubation: 498000 ECL signal
  Signal/Background, FXa 0.686 ng/mL, 10 minute incubation: 2.5
  Signal/Background, FXa 0.686 ng/mL, 20 minute incubation: 3.3
  Signal/Background, FXa 2.06 ng/mL, 10 minute incubation: 4.1
  Signal/Background, FXa 2.06 ng/mL, 20 minute incubation: 6.6
  Signal/Background, FXa 6.17 ng/mL, 10 minute incubation: 9
  Signal/Background, FXa 6.17 ng/mL, 20 minute incubation: 19
  Signal/Background, FXa 18.5 ng/mL, 10 minute incubation: 25
  Signal/Background, FXa 18.5 ng/mL, 20 minute incubation: 65
  Signal/Background, FXa 55.6 ng/mL, 10 minute incubation: 98
  Signal/Background, FXa 55.6 ng/mL, 20 minute incubation: 232
  Signal/Background, FXa 167 ng/mL, 10 minute incubation: 328
  Signal/Background, FXa 167 ng/mL, 20 minute incubation: 706
  Signal/Background, FXa 500 ng/mL, 10 minute incubation: 864
  Signal/Background, FXa 500 ng/mL, 20 minute incubation: 1560
[11]
  % Signal Decrease, Xa 0.686 ng/mL: -8.5%
  % Signal Decrease, Xa 2.06 ng/mL: -22%
  % Signal Decrease, Xa 6.17 ng/mL: -42%
  % Signal Decrease, Xa 18.5 ng/mL: -60%
  % Signal Decrease, Xa 55.6 ng/mL: -75%
  % Signal Decrease, Xa 167 ng/mL: -84%
  % Signal Decrease, Xa 500 ng/mL: -89%
  Mean Signal (ECL, competitive format), Xa 0.686 ng/mL: 84000 ECL signal
  Mean Signal (ECL, competitive format), Xa 2.06 ng/mL: 71900 ECL signal
  Mean Signal (ECL, competitive format), Xa 6.17 ng/mL: 53000 ECL signal
  Mean Signal (ECL, competitive format), Xa 18.5 ng/mL: 36400 ECL signal
  Mean Signal (ECL, competitive format), Xa 55.6 ng/mL: 22500 ECL signal
  Mean Signal (ECL, competitive format), Xa 167 ng/mL: 14300 ECL signal
  Mean Signal (ECL, competitive format), Xa 500 ng/mL: 9830 ECL signal
